Source: paper PMC7277169, “C-Methylation of S-adenosyl-L-Methionine Occurs Prior to Cyclopropanation in the Biosynthesis of 1-Amino-2-Methylcyclopropanecarboxylic Acid (Norcoronamic Acid) in a Bacterium” (Biomolecules, 2020)

System: T1, C[S+](CC[C@H](N)C(=O)O)C[C@H]1O[C@@H](n2cnc3c(N)ncnc32)[C@H](O)[C@@H]1O
T1 construct: C-terminal 8xHis tag kept; expressed in Streptomyces lividans TK23; Ni-NTA purified; homodimer
Experiment: HPLC-HR-ESI-MS of APDS-derivatized ACC; Michaelis-Menten fit
Type: biochemical, Streptomyces violaceusniger
Conditions: 50 mM sodium phosphate pH 8.0, 30 °C, 60 min, PLP enzyme, unit typeset as 'mm' in text

For “rOrf30 (Orf30) (Streptomyces violaceusniger)”, the Km was 1090 ± 330 µM and the kcat was 0.0049 ± 0.00068 s⁻¹.
